The values that follow are results of earlier work, collected in article PMC10999626.

The target in this data set is FcRn (Mus musculus) (UniProt Q61559). Briefly: BLI. (In BLI a coated tip is dipped into the sample, and binding shifts an interference pattern.)
FcRn (Mus musculus), sequence (Q61559 22-365): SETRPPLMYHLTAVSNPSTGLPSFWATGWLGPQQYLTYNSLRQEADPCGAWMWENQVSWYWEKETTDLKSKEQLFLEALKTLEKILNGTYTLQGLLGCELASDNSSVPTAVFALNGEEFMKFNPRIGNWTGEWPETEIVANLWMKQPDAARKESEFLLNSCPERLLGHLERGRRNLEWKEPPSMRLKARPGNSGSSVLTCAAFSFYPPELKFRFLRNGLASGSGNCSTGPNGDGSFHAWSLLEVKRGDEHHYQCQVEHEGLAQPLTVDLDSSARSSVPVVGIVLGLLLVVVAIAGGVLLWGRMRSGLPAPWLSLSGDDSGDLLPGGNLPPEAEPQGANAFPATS

human IgG4, sequence (P01861 whole entry): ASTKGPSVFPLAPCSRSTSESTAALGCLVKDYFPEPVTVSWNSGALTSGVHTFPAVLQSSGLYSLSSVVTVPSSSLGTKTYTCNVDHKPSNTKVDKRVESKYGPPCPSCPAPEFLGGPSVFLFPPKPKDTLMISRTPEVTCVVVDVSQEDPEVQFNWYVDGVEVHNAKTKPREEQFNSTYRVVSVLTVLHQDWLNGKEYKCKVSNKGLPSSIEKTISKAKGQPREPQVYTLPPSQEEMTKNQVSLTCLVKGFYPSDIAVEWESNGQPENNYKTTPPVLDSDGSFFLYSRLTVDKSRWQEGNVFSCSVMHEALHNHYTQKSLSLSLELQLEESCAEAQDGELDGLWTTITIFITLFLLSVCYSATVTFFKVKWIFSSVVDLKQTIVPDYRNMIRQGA

As to human IgG4 (from UniProt P01861), the Kd (usually a measure of binding affinity in units of concentration) was 6 nM.
